Results published in patent publication EP4684807A1, “LINKER AND USE THEREOF IN LIGAND DRUG CONJUGATE” (priority 2023, dated 2024).

B1: ADC-3D-1 (Reference ADC-22C) (antibody, human IgG1, kappa, V domains shown)
VH: QVQLQQPGTEVVKPGASVKLSCKASGFTFPLYWMHWVRQRPGRGLEWIGRIIPIFGHTKYNEKFKNKATLTADESSSTAYMELRSLTSDDSAVYYCARGGYYYYPREGFLDYWGQGTSVTVSS
VL: DIVMTQSPASLSVSPGERASISCRSSQSVDYSGDSYMNWYQQKPGQSPRLLIYAASDRESGVPDRFSGSGSGTDFTLKISRVEEEDAGTYYCQQSREDPFTFGQGTKVDIKR
modifications: control linker-payload conjugated to antibody thiols after TCEP reduction; DAR (k) 7.5 for the whole antibody
B2: ADC-1D-1 (Reference ADC-20C) (antibody, human IgG1, kappa, V domains shown)
VH: B1 VH
VL: B1 VL
modifications: control linker-payload conjugated to antibody thiols after TCEP reduction; DAR (k) 4.4 for the whole antibody
B3: ADC-2D-1 (Reference ADC-20C) (antibody, human IgG1, kappa, V domains shown)
VH: B1 VH
VL: B1 VL
modifications: control linker-payload conjugated to antibody thiols after TCEP reduction; DAR (k) 4.3 for the whole antibody
B4: ADC-4D-1 (Reference ADC-22C) (antibody, human IgG1, kappa, V domains shown)
VH: B1 VH
VL: B1 VL
modifications: control linker-payload conjugated to antibody thiols after TCEP reduction; DAR (k) 7.6 for the whole antibody

Target: T1, ADAM9 on ADAM9-positive cells (Calu-3, Ls174T) (UniProt Q13443 29-819, limits assumed)
T1 sequence (looked up): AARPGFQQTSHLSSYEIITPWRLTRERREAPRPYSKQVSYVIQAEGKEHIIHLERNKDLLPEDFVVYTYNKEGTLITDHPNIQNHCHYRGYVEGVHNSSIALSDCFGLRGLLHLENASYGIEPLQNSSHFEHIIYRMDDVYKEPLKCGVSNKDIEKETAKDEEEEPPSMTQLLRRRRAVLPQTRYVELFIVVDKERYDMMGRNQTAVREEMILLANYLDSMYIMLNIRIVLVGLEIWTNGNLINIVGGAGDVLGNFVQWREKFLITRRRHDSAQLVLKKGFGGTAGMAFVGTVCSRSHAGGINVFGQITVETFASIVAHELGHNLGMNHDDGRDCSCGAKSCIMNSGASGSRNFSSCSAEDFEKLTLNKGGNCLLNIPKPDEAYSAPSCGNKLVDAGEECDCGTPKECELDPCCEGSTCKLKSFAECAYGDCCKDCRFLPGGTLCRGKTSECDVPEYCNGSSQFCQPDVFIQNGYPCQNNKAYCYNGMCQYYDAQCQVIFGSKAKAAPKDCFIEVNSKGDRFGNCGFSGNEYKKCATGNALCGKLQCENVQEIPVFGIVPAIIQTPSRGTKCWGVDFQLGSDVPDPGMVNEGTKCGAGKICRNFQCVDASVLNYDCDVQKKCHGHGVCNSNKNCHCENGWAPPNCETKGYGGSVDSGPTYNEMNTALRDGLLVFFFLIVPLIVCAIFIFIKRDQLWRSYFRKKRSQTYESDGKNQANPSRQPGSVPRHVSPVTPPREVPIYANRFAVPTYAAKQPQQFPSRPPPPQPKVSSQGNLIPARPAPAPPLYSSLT
Test: cell-based or functional assay

| Binder | IC50 (nM), inhibition of cell proliferation, Calu-3 cells, CellTiter-Glo, 6 days [nM] | IC50 (nM), inhibition of cell proliferation, Ls174T cells, CellTiter-Glo, 6 days [nM] |
| --- | --- | --- |
| B1 | 0.34 |  |
| B2 |  | 15.3 |
| B3 |  | 27.1 |
| B4 | 0.78 |  |
